In assay [1] the target is T1, human Y2 receptor (P49146, NPY2R_HUMAN, Uniprot) (human, UniProt P49146 1-381).
T1 sequence (looked up): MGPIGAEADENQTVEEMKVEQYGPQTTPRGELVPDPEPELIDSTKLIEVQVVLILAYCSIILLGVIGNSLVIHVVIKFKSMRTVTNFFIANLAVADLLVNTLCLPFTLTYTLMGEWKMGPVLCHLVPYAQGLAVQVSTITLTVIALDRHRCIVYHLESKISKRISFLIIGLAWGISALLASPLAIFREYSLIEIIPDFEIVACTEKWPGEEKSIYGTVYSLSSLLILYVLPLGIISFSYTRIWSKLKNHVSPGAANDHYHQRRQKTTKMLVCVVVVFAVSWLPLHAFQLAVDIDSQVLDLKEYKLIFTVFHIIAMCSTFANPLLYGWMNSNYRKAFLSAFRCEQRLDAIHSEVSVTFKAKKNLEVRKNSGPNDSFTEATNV
As to the kind of experiment: cell-based or functional assay.

Assay [2] deals with T1, human Y2 receptor (P49146, NPY2R_HUMAN, …). As to the kind of experiment: SPA vs [125I]-PYY(1-36).
Protocol: (§1) Human Y receptor SPA binding assay were performed in white 96-well plates in a total volume of 200 μl per well.
(§2) Plates were sealed and incubated at +25° C. for 2 hours in a plate shaker set at 400 rpm and thereafter centrifuged at 1500 rpm for 10 minutes prior to reading of luminescence on a microplate scintillation and luminescence counter.
For assay [3], the target named is T2, human Y5 receptor (Q15761, NPY5R_HUMAN, Uniprot) (human, UniProt Q15761 1-445).
T2 construct: whole, on cells; Assayed as membrane preparations of the expressing cells
T2 sequence (looked up): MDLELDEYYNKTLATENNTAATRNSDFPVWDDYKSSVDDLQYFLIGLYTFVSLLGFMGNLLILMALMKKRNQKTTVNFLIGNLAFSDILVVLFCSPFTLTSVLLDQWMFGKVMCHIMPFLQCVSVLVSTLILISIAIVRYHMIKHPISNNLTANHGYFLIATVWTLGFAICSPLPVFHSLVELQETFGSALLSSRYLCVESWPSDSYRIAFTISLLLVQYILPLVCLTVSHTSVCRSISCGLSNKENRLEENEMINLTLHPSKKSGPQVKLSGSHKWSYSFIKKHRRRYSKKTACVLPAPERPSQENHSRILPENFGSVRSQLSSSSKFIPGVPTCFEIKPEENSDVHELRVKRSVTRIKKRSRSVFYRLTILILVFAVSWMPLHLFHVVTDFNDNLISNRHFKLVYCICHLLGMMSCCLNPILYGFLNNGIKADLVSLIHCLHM
As to the kind of experiment: SPA vs [125I]-PYY(1-36).
Protocol: as §1, §2

In assay [4] the target is T3, human Y4 receptor (P50391, NPY4R_HUMAN, Uniprot) (human, UniProt P50391 1-375).
T3 construct: whole, on cells; Assayed as membrane preparations of the expressing cells
T3 sequence (P50391 whole entry, one chain of several): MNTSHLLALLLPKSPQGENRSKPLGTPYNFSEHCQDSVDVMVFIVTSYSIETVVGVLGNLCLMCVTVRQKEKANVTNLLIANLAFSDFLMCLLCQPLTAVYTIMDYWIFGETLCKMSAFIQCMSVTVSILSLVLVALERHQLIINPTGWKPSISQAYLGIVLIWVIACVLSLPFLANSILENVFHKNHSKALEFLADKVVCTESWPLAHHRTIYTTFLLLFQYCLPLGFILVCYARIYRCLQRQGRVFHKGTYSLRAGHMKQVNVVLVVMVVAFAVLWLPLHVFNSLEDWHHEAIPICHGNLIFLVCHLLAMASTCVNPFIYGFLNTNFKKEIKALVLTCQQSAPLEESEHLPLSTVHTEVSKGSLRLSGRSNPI
As to the kind of experiment: SPA vs [125I]-PP.
Protocol: as §1, §2

For assay [5], the target named is T3, human Y4 receptor (P50391, NPY4R_HUMAN, …). As to the kind of experiment: ratio of SPA values, Y2 as reference.
Protocol: as §1, §2
The target of assay [6] is T2, human Y5 receptor (Q15761, NPY5R_HUMAN, …). Description: ratio of SPA values, Y2 as reference.
Protocol: as §1, §2

Changes are numbered by the printed parent chain. Numbered stars: 1 amine (or outer) side, 2 acyl side, 3 side chain; on linkers, the order of the positions; unused ones are H or OH. Side chains are listed from the residue outwards. * marks the point of attachment. Hexadecanoyl(16-SO3H) = O=C(CCCCCCCCCCCCCCCS(=O)(=O)O)*; C18 diacid = O=C(O)CCCCCCCCCCCCCCCCC(=O)*; γGlu = O=C(O)[C@H](CCC(=O)[*:2])N[*:1]; Isovaleryl = CC(C)CC(=O)*; AEEA = NCCOCCOCC(=O)O

B1: N{alpha-4}-(3-Methylbutanoyl)-N{Epsilon-7}-[2-[2-[2-[[(4S)-4-carboxy-4-(13-carboxytridecanoylamino)butanoyl]amino]ethoxy]ethoxy]acetyl]-[Arg4,Lys7,Pro9,Gln18,Ty … (peptide)
peptide: RPEKPPEDASPEELQRYYASLRHYYNWLTRQRY
modifications: N-terminal alpha-amino (position 4): 3-methylbutanoyl; Lys7 (hPYY(1-36) numbering) epsilon-amino: [2-[2-[2-[[(4S)-4-carboxy-4-(13-carboxytridecanoylamino)butanoyl]amino]ethoxy]ethoxy]acetyl]; C-terminal amide
notes: also called Compound 71; 71
Usually Ki stands for a dissociation constant, usually derived from enzyme kinetics or from competition with a known ligand. Read a low Ki as tighter binding. B1: the “Y2 EC50, Actone functional potency assay” value in assay [1] was determined as 0.5 nM. Besides, in assay [2], affinity was put at a Ki of 0.51 nM.

Isovaleryl-RPEAPGK([γGlu-AEEA-γGlu-C18 diacid])DASPEELQRYYASLRHYYNWLTRQRY-NH2 (also called Compound 59; 59) came in with an inhibitory constant (Ki) in assay [3] of 279 nM.

B2: N{alpha-4}-(3-Methylbutanoyl)-N{Epsilon-10}-[(4S)-4-carboxy-4-[[2-[2-[2-[[(4S)-4-carboxy-4-(17-carboxyheptadecanoylamino)butanoyl]amino]ethoxy]ethoxy]-acetyl]am … (peptide)
peptide: Isovaleryl-RPEAPGK([γGlu-AEEA-γGlu-C18 diacid])DASPEELQRYYESLRHYYNWLTRQRY-NH2
SMILES: CC(C)CC(=O)N[C@@H](CCCNC(=N)N)C(=O)N1CCC[C@H]1C(=O)N[C@@H](CCC(=O)O)C(=O)N[C@@H](C)C(=O)N1CCC[C@H]1C(=O)NCC(=O)N[C@@H](CCCCNC(=O)CC[C@H](NC(=O)COCCOCCNC(=O)CC[C@H](NC(=O)CCCCCCCCCCCCCCCCC(=O)O)C(=O)O)C(=O)O)C(=O)N[C@@H](CC(=O)O)C(=O)N[C@@H](C)C(=O)N[C@@H](CO)C(=O)N1CCC[C@H]1C(=O)N[C@@H](CCC(=O)O)C(=O)N[C@@H](CCC(=O)O)C(=O)N[C@@H](CC(C)C)C(=O)N[C@@H](CCC(N)=O)C(=O)N[C@@H](CCCNC(=N)N)C(=O)N[C@@H](Cc1ccc(O)cc1)C(=O)N[C@@H](Cc1ccc(O)cc1)C(=O)N[C@@H](CCC(=O)O)C(=O)N[C@@H](CO)C(=O)N[C@@H](CC(C)C)C(=O)N[C@@H](CCCNC(=N)N)C(=O)N[C@@H](Cc1c[nH]cn1)C(=O)N[C@@H](Cc1ccc(O)cc1)C(=O)N[C@@H](Cc1ccc(O)cc1)C(=O)N[C@@H](CC(N)=O)C(=O)N[C@@H](Cc1c[nH]c2ccccc12)C(=O)N[C@@H](CC(C)C)C(=O)N[C@H](C(=O)N[C@@H](CCCNC(=N)N)C(=O)N[C@@H](CCC(N)=O)C(=O)N[C@@H](CCCNC(=N)N)C(=O)N[C@@H](Cc1ccc(O)cc1)C(N)=O)[C@@H](C)O
notes: also called Compound 50; 50
For B2, the Ki in assay [2] was determined as 3.3 nM; in assay [3] it was 122 nM.

Take Isovaleryl-RPEK([γGlu-C18 diacid])PTEDASPEELQRYYQSLRHYYNWLTRQRY-NH2 (also called Compound 43): the inhibition constant (Ki) was found to be 6400 nM in assay [4] and 509 nM in assay [3]. The “Y2 EC50, Actone functional potency assay” value in assay [1] was 0.77 nM.

B3: N{alpha-4}-(3-Methylbutanoyl)-N{Epsilon-7}-[(4S)-4-carboxy-4-[[(4S)-4-carboxy-4-(19-carboxynonadecanoylamino)butanoyl]amino]butanoyl]-[Arg4,Lys7,Pro9,Gln18, … (peptide)
peptide: B1 peptide
modifications: N-terminal alpha-amino (position 4): 3-methylbutanoyl; Lys7 (hPYY(1-36) numbering) epsilon-amino: [(4S)-4-carboxy-4-[[(4S)-4-carboxy-4-(19-carboxynonadecanoylamino)butanoyl]amino]butanoyl]; C-terminal amide
notes: also called Compound 12; 12
Turning to B3, the “Y2 EC50, Actone functional potency assay” value in assay [1] turned out to be 4.35 nM. Besides, the affinity in assay [2] corresponds to a Ki of 1.1 nM.

For the molecule Isovaleryl-RPEAPGK([AEEA-AEEA-γGlu-C18 diacid])DASPEELQRYYAELRHYYNWLTRQRY-NH2 (also called Compound 52; 52), the Ki in assay [4] was 5690 nM; in assay [2], 0.66 nM; in assay [3], 182 nM. In addition, the “Ratio of Y4/Y2 EC50 values” in assay [5] worked out at 8620. Moreover, the “Ratio of Y5/Y2 EC50 values” in assay [6] was determined as 275.

B4: N{alpha-4}-(3-Methylbutanoyl)-N{Epsilon-7}-[(4S)-4-carboxy-4-(17-carboxy-heptadecanoylamino)butanoyl]-[Arg4,Lys7,Thr9,Gln18,Val22,Tyr28,Trp30,Leu31]hPYY(4-36) (peptide)
peptide: B1 peptide with P6T, A19V
HELM: PEPTIDE1{[CC(C)CC(=O)[*:2]].R.P.E.K.P.T.E.D.A.S.P.E.E.L.Q.R.Y.Y.V.S.L.R.H.Y.Y.N.W.L.T.R.Q.R.Y.[am]}|PEPTIDE2{[O=C(O)CCCCCCCCCCCCCCCCC(=O)[*:2]].[gGlu]}$PEPTIDE1,PEPTIDE2,5:R3-2:R2$$$V2.0
SMILES: CC(C)CC(=O)N[C@@H](CCCNC(=N)N)C(=O)N1CCC[C@H]1C(=O)N[C@@H](CCC(=O)O)C(=O)N[C@@H](CCCCNC(=O)CC[C@H](NC(=O)CCCCCCCCCCCCCCCCC(=O)O)C(=O)O)C(=O)N1CCC[C@H]1C(=O)N[C@H](C(=O)N[C@@H](CCC(=O)O)C(=O)N[C@@H](CC(=O)O)C(=O)N[C@@H](C)C(=O)N[C@@H](CO)C(=O)N1CCC[C@H]1C(=O)N[C@@H](CCC(=O)O)C(=O)N[C@@H](CCC(=O)O)C(=O)N[C@@H](CC(C)C)C(=O)N[C@@H](CCC(N)=O)C(=O)N[C@@H](CCCNC(=N)N)C(=O)N[C@@H](Cc1ccc(O)cc1)C(=O)N[C@@H](Cc1ccc(O)cc1)C(=O)N[C@H](C(=O)N[C@@H](CO)C(=O)N[C@@H](CC(C)C)C(=O)N[C@@H](CCCNC(=N)N)C(=O)N[C@@H](Cc1c[nH]cn1)C(=O)N[C@@H](Cc1ccc(O)cc1)C(=O)N[C@@H](Cc1ccc(O)cc1)C(=O)N[C@@H](CC(N)=O)C(=O)N[C@@H](Cc1c[nH]c2ccccc12)C(=O)N[C@@H](CC(C)C)C(=O)N[C@H](C(=O)N[C@@H](CCCNC(=N)N)C(=O)N[C@@H](CCC(N)=O)C(=O)N[C@@H](CCCNC(=N)N)C(=O)N[C@@H](Cc1ccc(O)cc1)C(N)=O)[C@@H](C)O)C(C)C)[C@@H](C)O
notes: also called Compound 44; 44
For B4, the results for the inhibition constant Ki in assay [4], in assay [2] and in assay [3] were 6670 nM, 0.33 nM and 470 nM, respectively. In assay [1], the “Y2 EC50, Actone functional potency assay” value worked out at 1.35 nM. Also, the “Ratio of Y4/Y2 EC50 values” in assay [5] was 20200. The “Ratio of Y5/Y2 EC50 values” in assay [6] was determined as 1420.

B5: N{alpha-4}-(3-Methylbutanoyl)-N{Epsilon-10}-[(4S)-4-carboxy-4-[[2-[2-[2-[[(4S)-4-carboxy-4-(16-sulfohexadecanoylamino)butanoyl]amino]ethoxy]-ethoxy]acetyl]amino … (peptide)
peptide: Isovaleryl-RPEAPPK([γGlu-AEEA-γGlu-Hexadecanoyl(16-SO3H)])DASPEELQRYYASLRHYYNWLTRQRY-NH2
SMILES: CC(C)CC(=O)N[C@@H](CCCNC(=N)N)C(=O)N1CCC[C@H]1C(=O)N[C@@H](CCC(=O)O)C(=O)N[C@@H](C)C(=O)N1CCC[C@H]1C(=O)N1CCC[C@H]1C(=O)N[C@@H](CCCCNC(=O)CC[C@H](NC(=O)COCCOCCNC(=O)CC[C@H](NC(=O)CCCCCCCCCCCCCCCS(=O)(=O)O)C(=O)O)C(=O)O)C(=O)N[C@@H](CC(=O)O)C(=O)N[C@@H](C)C(=O)N[C@@H](CO)C(=O)N1CCC[C@H]1C(=O)N[C@@H](CCC(=O)O)C(=O)N[C@@H](CCC(=O)O)C(=O)N[C@@H](CC(C)C)C(=O)N[C@@H](CCC(N)=O)C(=O)N[C@@H](CCCNC(=N)N)C(=O)N[C@@H](Cc1ccc(O)cc1)C(=O)N[C@@H](Cc1ccc(O)cc1)C(=O)N[C@@H](C)C(=O)N[C@@H](CO)C(=O)N[C@@H](CC(C)C)C(=O)N[C@@H](CCCNC(=N)N)C(=O)N[C@@H](Cc1c[nH]cn1)C(=O)N[C@@H](Cc1ccc(O)cc1)C(=O)N[C@@H](Cc1ccc(O)cc1)C(=O)N[C@@H](CC(N)=O)C(=O)N[C@@H](Cc1c[nH]c2ccccc12)C(=O)N[C@@H](CC(C)C)C(=O)N[C@H](C(=O)N[C@@H](CCCNC(=N)N)C(=O)N[C@@H](CCC(N)=O)C(=O)N[C@@H](CCCNC(=N)N)C(=O)N[C@@H](Cc1ccc(O)cc1)C(N)=O)[C@@H](C)O
notes: also called Compound 69; 69
Consider B5, for which the figures for the Ki in assay [4], in assay [2] and in assay [3] were 5690 nM, 0.94 nM and 146 nM, respectively.

For the origin of these results see patent publication US20170313750A1 (Novo Nordisk, published 2017).
